What was measured:
[1] = system: colorectal, pancreatic, and lung cancer populations; experiment: Three Phase 3 placebo-controlled clinical studies, GI perforation; assay type: in vivo, human; conditions: across three Phase 3 placebo-controlled studies
Excerpt: Gastrointestinal (GI) perforation including fatal GI perforation can occur in patients receiving ZALTRAP. Across three Phase 3 placebo-controlled clinical studies (colorectal, pancreatic, and lung cancer populations), the incidence of GI perforation (all grades) was 0.8% for patients treated with ZALTRAP and 0.3% for patients treated with placebo. Grade 3-4 GI perforation events occurred in 0.8% of patients treated with ZALTRAP and 0.2% of patients treated with placebo.

[2] = system: previously treated patients with metastatic colorectal cancer; conditions: pre-treated patients with MCRC; cited from earlier work
human VEGF-B = biological target: T1, human VEGF-B (Homo sapiens, UniProt P49765); experiment: Binding, equilibrium dissociation constant
T1 sequence (P49765 31-129 limits assumed): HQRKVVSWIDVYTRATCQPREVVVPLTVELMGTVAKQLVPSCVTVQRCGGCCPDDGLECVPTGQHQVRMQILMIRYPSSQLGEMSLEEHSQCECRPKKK
Excerpt: (§1) This inhibition can result in decreased neovascularization and decreased vascular permeability.

human PIGF-2 = biological target: T2, human PIGF-2 (Homo sapiens, UniProt P49763); experiment: Binding, equilibrium dissociation constant
T2 sequence (P49763 19-170 isoform P49763-3 limits assumed): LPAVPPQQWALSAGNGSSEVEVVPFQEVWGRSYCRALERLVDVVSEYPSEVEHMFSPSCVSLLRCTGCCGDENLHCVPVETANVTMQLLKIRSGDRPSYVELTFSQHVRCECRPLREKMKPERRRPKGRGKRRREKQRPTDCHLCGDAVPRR
Excerpt: as §1

[3] = Population pharmacokinetic analysis; assay type: in vivo, human
Excerpt: There are no data available for patients with severe hepatic impairment.
There is no data available for patients with severe hepatic impairment (total bilirubin>3×ULN and any SGOT/AST).

[4] = system: sexually mature cynomolgus monkeys; experiment: 6-month repeat-dose toxicology study; assay type: in vivo, cynomolgus monkey
Protocol: Reversibility was observed within 18 weeks after cessation of treatment. Systemic exposure (AUC) with a 3 mg per kg per dose in monkeys was approximately 60% of the AUC in patients at the recommended dose.
Most ziv-aflibercept-related findings were noted from the lowest dose tested (3 mg per kg per dose) correlating to 60% of the AUC at the human recommended dose.

[5] = system: non-small cell lung cancer (NSCLC); conditions: added to docetaxel vs docetaxel plus placebo; cited from earlier work
[6] = system: sexually immature cynomolgus monkeys; experiment: 3-month intravenous toxicology study; assay type: in vivo, cynomolgus monkey; conditions: after a post-dosing recovery period
[7] = system: patients with metastatic colorectal cancer (MCRC)
Excerpt: Each randomized patient was to be treated until disease progression, death, or unacceptable toxicity.
Treatment arms were evenly balanced for demographics, disease characteristics and prior anti-cancer treatments, including prior exposition to bevacizumab.
Patients received a median of 9 cycles of ZALTRAP/FOLFIRI or 8 cycles of placebo/FOLFIRI.

[8] = system: patients with metastatic colorectal cancer (MCRC); experiment: EFC10262 (VELOUR) randomized double-blind phase 3 study: efficacy (OS, PFS, response rate);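 further: Placebo-controlled comparison, both arms on FOLFIRI every 2 weeks until progression or intolerable toxicity, in patients progressing on or within 6 months after oxaliplatin-based combination chemotherapy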
Excerpt: Each randomized patient was to be treated until disease progression, death, or unacceptable toxicity. […] The predefined statistical significance level for this final analysis was 0.0466 after adjusting the type I error spent for the two interim analyses using the O'Brien-Fleming spending function.
The study included one formal interim analysis, planned for the purpose of efficacy, when 561 death events (65% information time) had occurred. Upon request of the independent Data Monitoring Committee (DMC), an additional interim analysis of OS was performed to provide an early evaluation of the benefit-risk ratio, when 315 death events (36.5% information fraction) had occurred.
A total of approximately 863 deaths were required to detect 20% hazard rate reduction in OS with 90% power using the two-sided log rank test at an overall 0.0499 alpha level. The median survival times was expected to be 11 months for the control group. The overall alpha level was split between overall survival (0.0499) and progression-free survival as a secondary efficacy endpoint (0.0001).
Approximately 1200 patients (i.e. 600 patients per treatment group) were planned to be randomized. Treatment assignment was stratified according to prior therapy with bevacizumab (yes or no), and ECOG performance status (PS) (0 vs 1 vs 2).
The enrolment started in November 2007 and was completed in March 2010. A total of 1226 patients were randomized. […] Treatment arms were evenly balanced for demographics, disease characteristics and prior anti-cancer treatments, including prior exposition to bevacizumab.
Immediately after, patients received irinotecan, 5-FU and leucovorin (FOLFIRI regimen). This treatment was repeated every 2 weeks.
Study 1 was a randomized, double-blind, placebo-controlled study in patients with metastatic colorectal cancer (mCRC) who are resistant to or have progressed during or within 6 months of receiving oxaliplatin-based combination chemotherapy, with or without prior bevacizumab. A total of 1226 patients were randomized (1:1) to receive either ZALTRAP (N=612; 4 mg per kg as a 1 hour intravenous infusion on day 1) or placebo (N=614), in combination with 5-fluorouracil plus irinotecan [FOLFIRI: irinotecan 180 mg per m2 IV infusion over 90 minutes and leucovorin (dl racemic) 400 mg per m^2 intravenous infusion over 2 hours at the same time on day 1 using a Y-line, followed by 5-FU 400 mg per m^2 intravenous bolus, followed by 5-FU 2400 mg per m^2 continuous intravenous infusion over 46-hours]. The treatment cycles on both arms were repeated every 2 weeks. Patients were treated until disease progression or unacceptable toxicity. The primary efficacy endpoint was overall survival. Treatment assignment was stratified by the ECOG performance status (0 versus 1 versus 2) and according to prior therapy with bevacizumab (yes or no).

[9] = Clinical pharmacokinetics, plasma free ziv-aflibercept by ELISA; assay type: in vivo, human
[10] = system: patients with solid tumors; experiment: Cardiac electrophysiology, QTc study; assay type: in vivo, human; conditions: 6 mg/kg intravenous every three weeks; 87 patients; large = greater than 20 ms
Protocol: The effect of 6 mg/kg intravenous ZALTRAP every three weeks on QTc interval was evaluated in 87 patients with solid tumors in a randomized, placebo-controlled study. […] However, a small increase in the mean QTc interval (i.e., less than 10 ms) cannot be excluded due to limitations of the study design.

patients with cancer = experiment: Pooled safety across completed studies (RPLS, TMA); assay type: in vivo, human
Excerpt: Severe proteinuria, nephrotic syndrome, and thrombotic microangiopathy (TMA) occurred more frequently in patients treated with ZALTRAP. In patients with mCRC, proteinuria was reported in 62% patients treated with ZALTRAP/FOLFIRI compared to 41% patients treated with placebo/FOLFIRI. Grade 3-4 proteinuria occurred in 8% of patients treated with ZALTRAP/FOLFIRI to 1% of patients treated with placebo/FOLFIRI [see Adverse Reactions (6.1)]. Nephrotic syndrome occurred in 2 patients (0.5%) treated with ZALTRAP/FOLFIRI compared to none of the patients treated with placebo/FOLFIRI. TMA was reported in 3 of 2258 patients with cancer enrolled across completed studies.
RPLS (also known as posterior reversible encephalopathy syndrome) was reported in 0.5% of 3795 patients treated with ZALTRAP monotherapy or in combination with chemotherapy.

rabbits = experiment: Excisional and incisional skin wound healing models; assay type: in vivo, rabbit; conditions: for wound healing: repeated administration
[11] = system: patients with various cancers; experiment: Immunogenicity, anti-product antibody (APA) across 15 studies; assay type: in vivo, human
Excerpt: As with all therapeutic proteins, there is a potential for immunogenicity. In patients with various cancers across 15 studies, 1.4% (41/2862) of patients tested positive for anti-product antibody (APA) at baseline. […] Among patients who tested positive for APA and had sufficient samples for further testing, neutralizing antibodies were detected in 17 of 48 ziv-aflibercept-treated patients and in 2 of 40 patients receiving placebo.
Immunogenicity data are highly dependent on the sensitivity and specificity of the assay. Additionally, the observed incidence of antibody positivity in an assay may be influenced by several factors, including sample handling, timing of sample collection, concomitant medications, and underlying disease. For these reasons, comparison of the incidence of antibodies to ZALTRAP with the incidence of antibodies to other products may be misleading.

endothelial cells = experiment: Endothelial cell proliferation in animals; assay type: in vivo
Excerpt: as §1

pregnant rabbits = experiment: Embryo-fetal toxicity study; assay type: in vivo, rabbit; conditions: every 3 days during organogenesis, intravenous, all doses tested
Excerpt: Adverse embryo-fetal effects included increased incidences of postimplantation losses and external (including anasarca, umbilical hernia, diaphragmatic hernia and gastroschisis, cleft palate, ectrodactyly, and atresia), visceral (in the heart, great vessels, and arteries), and skeletal fetal malformations (including fused vertebrae, sternebrae, and ribs; supernumerary arches and ribs, and incomplete ossification). […] The incidence and severity of fetal anomalies increased with increasing dose.

[12] = system: xenotransplanted colon tumors; experiment: Xenotransplanted colon tumor growth; assay type: in vivo; conditions: mice
Excerpt: as §1

[13] = includes death due to disease progression

ziv-aflibercept: recombinant fusion protein of VEGF-binding portions of human VEGF Receptors 1 and 2 fused to the Fc portion of human IgG1 (SEQ ID NO:1)
Grade 3-4 GI perforation events [1]: 0.8% | incidence of GI perforation (all grades) [1]: 0.8% | tolerability [2]: well tolerated | Kd (human VEGF-B): 0.00192 nM | Kd (human PIGF-2): 0.039 nM | increase in systemic exposure in patients weighing >=100 kg ([3]; compared to patients weighing 50 to 100 kg): 29% | pharmacokinetic drug-drug interactions with irinotecan/SN-38 or 5-FU ([3]; cross-study comparisons and population pharmacokinetic analyses): No clinically important pharmacokinetic drug-drug interactions | exposure in patients with mild and moderate hepatic impairment vs normal hepatic function ([3]; data from 1507 patients): similar | exposure in patients with mild, moderate, and severe renal impairment vs normal renal function ([3]; data from 1507 patients): similar | effect of age, race, and gender on the exposure of free ziv-aflibercept ([3]; in vivo): did not have a clinically important effect | reproductive function and fertility ([4]; all doses tested including 3 mg per kg): impaired reproductive function and fertility | reversibility of reproductive findings after cessation of treatment ([4]; monkeys): ≤ 18 weeks | repeat-dose toxicity findings ([4]; weekly/every two weeks intravenous for up to 6 months, from 3 mg per kg per dose): changes in the bone | primary endpoint of improvement in overall survival [5]: did not meet the pre-specified criteria | reversibility of skeletal and nasal cavity effects [6]: not reversible | Grade 3 GI fistula formation ([7]; 2 patients): 0.3% | Patients with any TEAE leading to death ([7]; Safety population N = 611): 37 (6.1%) number (%) of patients | dose reduced and/or omitted ([7]; Study 1): 17 % of patients | occurrence of grade 3-4 treatment emergent adverse events ([7]; in vivo): 83.5% | premature treatment discontinuation due to adverse events ([7]; in vivo): 19.5% | rate of permanent discontinuation of study treatment due to adverse events ([7]; in vivo): 26.8% | patients with adverse events that led to death after 30 days of last dosing [7, 13]: 12 | patients with adverse events that led to death within 30 days of last dosing [7, 13]: 28 | estimated probability of being alive ([8]; 12 months from randomization): 56.1% | estimated probability of being alive ([8]; 18 months from randomization): 38.5% | Median overall survival (95.34% CI) ([8]; ITT population, all patients, cutoff 7 FEB. 2011): 13.50 months | Median PFS (99.99% CI) ([8]; ITT population, all patients, tumor assessment by the IRC, cutoff 6 MAY 2010): 6.90 months | Overall Response: Responders (Complete response or Partial response), % ([8]; by IRC, evaluable patient population N = 531): 19.8% | reduction of risk of death ([8]; compared to placebo, from hazard ratio): 18.3% | PFS HR (99.99% CI) ([8]; liver metastasis only group): 0.547 | PFS HR (99.99% CI) ([8]; no liver metastasis, or other metastases group): 0.839 | dose linearity of free ziv-aflibercept concentrations ([9]; dose range of 2-9 mg/kg): linear pharmacokinetics | Steady state concentrations of free ziv-aflibercept reached ([9]; human, in vivo): by the second dose | change in the mean QT interval from baseline (Fridericia correction) [10]: No large changes in the mean QT interval | RPLS (posterior reversible encephalopathy syndrome) (patients with cancer; 3795 patients, monotherapy or in combination with chemotherapy): 0.5% | thrombotic microangiopathy (TMA) (patients with cancer; patients with cancer enrolled across completed studies): 3 of 2258 | full-thickness excisional and incisional skin wound model findings (rabbits; rabbit, in vivo): reduced fibrous response, neovascularization, epidermal hyperplasia/re-epithelialization, and tensile strength | wound healing (rabbits): delay in wound healing | wound healing (rabbits; listed as ZALTRAP): impairs wound healing | neutralizing antibodies detected ([11]; among APA-positive patients with sufficient samples): 17 of 48 | incidence of APA development ([11]; intravenous, 53/1687 patients): 3.1% | mean free ziv-aflibercept trough concentrations in patients with positive neutralizing antibodies ([11]; versus the overall population): lower | proliferation of endothelial cells (endothelial cells): inhibit the proliferation of endothelial cells | embryo-fetal toxicity (pregnant rabbits): produced embryo-fetal toxicity | embryo-fetal toxicity (pregnant rabbits; listed as ZALTRAP): embryotoxic and teratogenic | growth of xenotransplanted colon tumors [12]: inhibited the growth
